Assay: yeast display, Sf9 membrane polyspecificity reagent, FACS + sequencing; frameworks hold sequencing errors
In short: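 A synthetic nanobody library was expressed on Saccharomyces cerevisiae BJ5465 by galactose induction for 36–48 hours. The library was stained for 1 hour at 4 °C with 10% biotinylated, detergent-solubilized Sf9 membrane reagent and enriched with streptavidin microbeads before FACS. Low and high (top ~1%) gates were set on anti-HA fluorescence for expression and streptavidin fluorescence for reagent binding, and each polyreactivity label reflects the gate of origin.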

Sequence | polyreactivity (PSR sort gate)
QVQLVESGGGLVQAGGSLRLSCAASGITFSSYAMGWYRQAPGTEREFVARISTDADTYYADSVKGRFTISRDNAKHTVLLQMNSLKPEDTAVYYCAAEDYRDFDYWGHGTQVTVSS | low polyreactivity
QVQLVESGGGLVQAGGSLRLSCAASGITFSYNAMGWSRQAPGKERELVAAISSNSDSTYYADSVKGRFTISRDNAKNTVYLQMNSLKPEDTAVYYCAADSPDDPDYSGFYYWGQGSQVTVSS | low polyreactivity
QVQLVESGGGLVQAGGSLRLSCAASGITFSYNAMGWYRQAPGKERELVAAISDIGGSTYYADSVKGRFTISRDNAKITVYLQMNSLKPEDTAVYYCAADEYYQDEYDYWGQGTQVTVSS | low polyreactivity
QVQLVESGGGLVQAGGSLRLSCAASGITFSYNAMGWYRQAPGKERELVAAISSNSDSTYYADSVKGRFTISRDYAKNTVYLQMNRLKPEDTAVYYCAADTPDAPDYSGFYYWGQGTQVTVSS | low polyreactivity
QVQLVESGGGLVQAGGSLRLSCAASGITFSYYAMGWYRPAPGKERELVAAINSGGGSTYYADSVKGRFTISRDNAKNTVFLQMNSLKPDDTAVYYCAARYRSRYEYYYDRDYWGQGTQVSVSS | low polyreactivity
QVQLVESGGGLVQAGGSLRLSCAASGITFSYYAMGWYRQAPGKERELVAAINGGGSRTYYADSVKGRFTISRDNAKNTVYLQMNSLKPEDTAVYYCAAYSGQARGYDYWGQGTQVTVSS | high polyreactivity
QVQLVESGGGLVQAGGSLRLSCAASGITFTFNAMGWYRQAPGKERELVAAITWSGGSTFYADSVKGRFTFSRDNAKNTVYLQMNSLKPEDTAVYYCARDTELYVRWLDYWVQGTQVTVSS | low polyreactivity
QVQLVESGGGLVQAGGSLRLSCAASGITFTPNAMGWYRQAPGKEREFVAAITYSGGSTYYADSVKGRFTISRDNAKNTVYLQMNSLKPEDTAVYYCAAVYYLLYYEAYYYWGQGTQVTVSS | low polyreactivity
QVQLVESGGGLVQAGGSLRLSCAASGITFTPYAMGWYRQAPGKERELVAAITSGGSTNYADSVKGRFTISRDNAKNTVYLQMNSLKPEDTAVYYCAAGRWPAPWYTRNYWGQGTQVTVSS | low polyreactivity
QVQLVESGGGLVQAGGSLRLSCAASGITFTRNVMGWYRQAPGKERELVAAISGSGGSTYYADSVKGRFTISRDNEKNTVYLQMNSLKTEDTAVYYCAARSRGGRRYDYWGQGTQVTVSS | high polyreactivity
QVQLVESGGGLVQAGGSLRLSCAASGITFTRYAMGWYRQAPGKERELVAAISSGGRTNYADSVKGRFTISRDNAKNTVYLQMNSLKPEDTGVYYCNAAGHRWDPRYHYWGQGTQVTVSS | high polyreactivity
QVQLVESGGGLVQAGGSLRLSCAASGITFTSNTLGWYRQAPGKERELVAAISKSGGSTYYADSVKGRFTISRDNAKNTVYLQMNSLKPEDTAVYYCAKDSDYYRRDVTVDYWGQGTQVTVSS | low polyreactivity
QVQLVESGGGLVQAGGSLRLSCAASGITFTSNTMGWYRQAPGKERELVAAISKSGGSTYYADSVKGRFTISRDNEKNTVYLQMNSLKPEDTAVYYCNTVSFYDPFGAYGYWGQGTQVTVSS | high polyreactivity
QVQLVESGGGLVQAGGSLRLSCAASGITFTSYAMGWYRQAPGKERELVAAISAGGGRTYYADSVKGRFTISRDNAKNTVYLQMNSLKPEDTAVYYCAVKYPELRTWGYYYWGQGTQVTVSS | high polyreactivity
QVQLVESGGGLVQAGGSLRLSCAASGITFTSYVMGWYRQAPGKERELVAAISRSGGSSTYYADSVKGRFTISRDNAKNTVYLQMNSLKPEDTAVYYCAADSPYTGGANVYWGQGTQVTVSS | high polyreactivity
QVQLVESGGGLVQAGGSLRLSCAASGITFTVYAMGWYRQAPGKERELVAAITSTGSTNYAHSVKGRFTISRDNAKNTVYLLMNSLKPEDTAVYYCAADRQITVYAYDYWGQGTQVTVSS | low polyreactivity

Sequence | polyreactivity (PSR sort gate)
QVQLVESGGGLVQAGGSLRLSCAASGITFTYYAMGWYRQAPGKERELVAAITWRGGSTYYADSVKGRFTISRDNAKNTVYLQMNSLKPEDTAVYYCAADVYVGPYHYEYWGQGTQVTVSS | high polyreactivity
QVQLVESGGGLVQAGGSLRLSCAASGITFVGNAMGWSRQAPGKERELVAAMSSSGASTYYADSVKGRFTISRDYAKNTVYLQMNSLKPEDTAVYYCNAGWGVVIRRYPTYDYWGQGTQVTVSS | high polyreactivity
QVQLVESGGGLVQAGGSLRLSCAASGITFVHNVMGWYRQAPGKERELVAAINSGGRTYYADSVKGRFTISRDNAKNTVYLQMNSLKPEDTAVYYCAALGDKRGGGNYWGQGTQVTVSS | high polyreactivity
QVQLVESGGGLVQAGGSLRLSCAASGITFVLNARGWYRQAPGKERELVARISWSTGSTYYADSVKGRFTISRDNAKNTVYLQMNSLKPEDTAVYYCAVDYNYQSLYVVVEGEYWGQGTQVTVSS | low polyreactivity
QVQLVESGGGLVQAGGSLRLSCAASGITFVLYAMGWYRQAPGKERELVAANSSSGGRTYYADSVKGRFTISRDYAKNTVYLQMNSLKPEDTAVYYCAKDTYGFAANRPAGDGYWGQGTQVTVSS | high polyreactivity
QVQLVESGGGLVQAGGSLRLSCAASGITFVNNSRGCYRQAPVKEREFVAAISQGGGSTYYADSVKGRFTISRDNAKYTVYLQMNSLKPEDTAVYYCAAEIPRWWRFGYWGQGTQVTVSS | low polyreactivity
QVQLVESGGGLVQAGGSLRLSCAASGITFVPNAMGWYRQAPGKERELVAAITGNGGRTYYADSVKGRFTISRDNAKNTVYLQMNSLKPEDTAVYYCNGRKLYWAYTLSKYDYWGQGTQLTVSS | high polyreactivity
QVQLVESGGGLVQAGGSLRLSCAASGITFVQNVMGWYRQAPGKEREFVAGINYSGGSTYYADSVKGRFTISRDNAKNTVYLQMNSLKPEDTAVYYCAADYDRYTYAFVYRYRRMYYWGQGTQVTVSS | low polyreactivity
QVQLVESGGGLVQAGGSLRLSCAASGITFVQYAMGWYRQAPGKERELVAAIRRGGSTSYADSVKGRFTISRDNAKNTVYLQMNSLKPEDTAVYYCARRYDWPITPLDVEYWGQGTQVTVSS | low polyreactivity
QVQLVESGGGLVQAGGSLRLSCAASGITFVRNAMGWYRQAPGKEREFVAAISWSGGSTYYADSVKGRFTISRDNAKNTVYLQMNSLKPEDTAVYYCAAAYPRVTYKYGYYWGQGTQVTVSS | high polyreactivity
QVQLVESGGGLVQAGGSLRLSCAASGITFVRYAMGWYRQAPGKERELVAVISRGGITNYADSVKGRFTISRDNAKNSVYLQMNSLKAEDTAVYYCAVRVRSNVRTYDYWGQGTQVTVSS | high polyreactivity
QVQLVESGGGLVQAGGSLRLSCAASGITFVRYTMGWYRQAPGKEWELVATITLSGGRTYYADSVQGRFTISRDNAKNTVSLQMTSLKPEDTAVYYCAASSRSRWSGYRYDYWGQGTQVTVSS | high polyreactivity
QVQLVESGGGLVQAGGSLRLSCAASGITFVSNGMGWYRTAPGKERELVAAITRSGGSTYYADSVKGRFTISRDNAKNTVYLQMNSLKPEDTAVYYCNARTSRYRRGGDSWGQGTQVTVSS | high polyreactivity
QVQLVESGGGLVQAGGSLRLSCAASGITFVTYAMGWYRQAPGKERELVAAITIGGRTNYADSVKGRFTISRDNAKNTVYLQMNSLKPEDTAVYYCNAAPVYDVTRLFYDDMGYWGQGTQVTVSS | low polyreactivity
QVQLVESGGGLVQAGGSLRLSCAASGITFVWNAMGWYRQAPGKERELVATISRGGVRTYYADSVKGRFTISRDNAKNTVYLQMNSLKPEDTAVYYCNKRYWYPSSLHWTSFRGYDYWGQGTQVTVSS | low polyreactivity

From the nanobody polyreactivity screen of Harvey et al. (2022)
